Tested on: Escherichia coli TOP10
Assay: shrunken log2 fold change of peptide-encoding DNA abundance (4.5 h post-induction vs induction); higher = less antimicrobial activity (less host growth inhibition)
Settings: time post-induction: 4.5 h; library: site-saturation at positions 5, 18, 19, 20
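Also: peptides expressed intracellularly from a pBAD plasmid library in pooled LB shake-flask culture, induced with 0.3% L-arabinose, DNA abundance read by NGS, three biological replicates, DESeq2 with apeglm shrinkage.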

| Sequence | shrunken log2 fold change |
| --- | --- |
| RRIRVRPPRLPRPRPRPVCKPRP | -0.444 |
| RRIRVRPPRLPRPRPRPVDEPRP | 0.144 |
| RRIRVRPPRLPRPRPRPVFLPRP | -0.339 |
| RRIRVRPPRLPRPRPRPVFPPRP | 0.038 |
| RRIRVRPPRLPRPRPRPVGDPRP | 0.294 |
| RRIRVRPPRLPRPRPRPVGPPRP | 0.0843 |
| RRIRVRPPRLPRPRPRPVKYPRP | 0.228 |
| RRIRVRPPRLPRPRPRPVNKPRP | -0.186 |
| RRIRVRPPRLPRPRPRPVNRPRP | -0.142 |
| RRIRVRPPRLPRPRPRPVPQPRP | 0.324 |
| RRIRVRPPRLPRPRPRPVQKPRP | 0.0709 |
| RRIRVRPPRLPRPRPRPVRDPRP | 0.0998 |
| RRIRVRPPRLPRPRPRPVRKPRP | 0.274 |
| RRIRVRPPRLPRPRPRPVTMPRP | -0.196 |
| RRIRVRPPRLPRPRPRPVVDPRP | -0.0784 |
| RRIRVRPPRLPRPRPRPVVHPRP | -0.0292 |
| RRIRVRPPRLPRPRPRPVWSPRP | 0.754 |
| RRIRVRPPRLPRPRPRPWCDPRP | -0.394 |
| RRIRVRPPRLPRPRPRPWCKPRP | 0.0335 |
| RRIRVRPPRLPRPRPRPWFWPRP | 0.121 |
| RRIRVRPPRLPRPRPRPWGHPRP | 0.0373 |
| RRIRVRPPRLPRPRPRPWHCPRP | -0.0339 |

| Sequence | shrunken log2 fold change |
| --- | --- |
| RRIRVRPPRLPRPRPRPWIEPRP | -0.104 |
| RRIRVRPPRLPRPRPRPWIKPRP | 0.0141 |
| RRIRVRPPRLPRPRPRPWIQPRP | 0.0857 |
| RRIRVRPPRLPRPRPRPWKMPRP | -0.148 |
| RRIRVRPPRLPRPRPRPWMDPRP | 0.0171 |
| RRIRVRPPRLPRPRPRPWMGPRP | -0.339 |
| RRIRVRPPRLPRPRPRPWNAPRP | -0.0893 |
| RRIRVRPPRLPRPRPRPWPFPRP | 0.14 |
| RRIRVRPPRLPRPRPRPWSNPRP | -0.0426 |
| RRIRVRPPRLPRPRPRPWVRPRP | 0.0573 |
| RRIRVRPPRLPRPRPRPWWMPRP | -0.26 |
| RRIRVRPPRLPRPRPRPWYDPRP | -0.00243 |
| RRIRVRPPRLPRPRPRPYAQPRP | 0.0393 |
| RRIRVRPPRLPRPRPRPYASPRP | 0.00213 |
| RRIRVRPPRLPRPRPRPYCNPRP | -0.501 |
| RRIRVRPPRLPRPRPRPYDMPRP | -0.382 |
| RRIRVRPPRLPRPRPRPYEPPRP | -1.29 |
| RRIRVRPPRLPRPRPRPYFGPRP | -0.0505 |
| RRIRVRPPRLPRPRPRPYHDPRP | -0.182 |
| RRIRVRPPRLPRPRPRPYHNPRP | -0.946 |
| RRIRVRPPRLPRPRPRPYHVPRP | -0.055 |
| RRIRVRPPRLPRPRPRPYITPRP | -0.77 |

| Sequence | shrunken log2 fold change |
| --- | --- |
| RRIRVRPPRLPRPRPRPYKDPRP | -0.933 |
| RRIRVRPPRLPRPRPRPYKFPRP | -0.475 |
| RRIRVRPPRLPRPRPRPYLKPRP | -0.0795 |
| RRIRVRPPRLPRPRPRPYPYPRP | -0.0982 |
| RRIRVRPPRLPRPRPRPYQFPRP | -0.0508 |
| RRIRVRPPRLPRPRPRPYRIPRP | 0.0112 |
| RRIRVRPPRLPRPRPRPYRPPRP | -0.462 |
| RRIRVRPPRLPRPRPRPYTPPRP | -0.645 |
| RRIRVRPPRLPRPRPRPYVQPRP | -0.918 |
| RRIRVRPPRLPRPRPRPYYNPRP | -0.548 |
| RRIRWRPPRLPRPRPRPAAHPRP | 0.167 |
| RRIRWRPPRLPRPRPRPAAIPRP | 0.302 |
| RRIRWRPPRLPRPRPRPADAPRP | 0.739 |
| RRIRWRPPRLPRPRPRPAEDPRP | 0.711 |
| RRIRWRPPRLPRPRPRPAGKPRP | 0.0305 |
| RRIRWRPPRLPRPRPRPAGQPRP | 0.218 |
| RRIRWRPPRLPRPRPRPAGSPRP | -0.176 |
| RRIRWRPPRLPRPRPRPAHAPRP | 0.191 |
| RRIRWRPPRLPRPRPRPAHKPRP | 0.344 |
| RRIRWRPPRLPRPRPRPAHMPRP | 0.0152 |
| RRIRWRPPRLPRPRPRPAIAPRP | 0.242 |
| RRIRWRPPRLPRPRPRPAISPRP | -0.00844 |

| Sequence | shrunken log2 fold change |
| --- | --- |
| RRIRWRPPRLPRPRPRPAKHPRP | 0.192 |
| RRIRWRPPRLPRPRPRPANNPRP | -0.205 |
| RRIRWRPPRLPRPRPRPAPKPRP | 0.992 |
| RRIRWRPPRLPRPRPRPAPMPRP | 0.615 |
| RRIRWRPPRLPRPRPRPAQHPRP | 0.363 |
| RRIRWRPPRLPRPRPRPARIPRP | 0.176 |
| RRIRWRPPRLPRPRPRPARWPRP | 1.07 |
| RRIRWRPPRLPRPRPRPASAPRP | 0.298 |
| RRIRWRPPRLPRPRPRPASLPRP | 0.0313 |
| RRIRWRPPRLPRPRPRPASVPRP | 0.00924 |
| RRIRWRPPRLPRPRPRPAVPPRP | 0.506 |
| RRIRWRPPRLPRPRPRPAWMPRP | 0.139 |
| RRIRWRPPRLPRPRPRPAYCPRP | -0.0978 |
| RRIRWRPPRLPRPRPRPAYKPRP | -0.182 |
| RRIRWRPPRLPRPRPRPAYSPRP | -0.153 |
| RRIRWRPPRLPRPRPRPCAIPRP | 0.027 |
| RRIRWRPPRLPRPRPRPCARPRP | 0.0277 |
| RRIRWRPPRLPRPRPRPCAWPRP | 0.0191 |
| RRIRWRPPRLPRPRPRPCCPPRP | -0.206 |
| RRIRWRPPRLPRPRPRPCFGPRP | -0.119 |
| RRIRWRPPRLPRPRPRPCFHPRP | -0.247 |
| RRIRWRPPRLPRPRPRPCFKPRP | 0.0478 |

| Sequence | shrunken log2 fold change |
| --- | --- |
| RRIRWRPPRLPRPRPRPCGSPRP | -0.0157 |
| RRIRWRPPRLPRPRPRPCHGPRP | 0.0694 |
| RRIRWRPPRLPRPRPRPCIQPRP | -0.394 |
| RRIRWRPPRLPRPRPRPCKCPRP | -0.0392 |
| RRIRWRPPRLPRPRPRPCMIPRP | -0.471 |
| RRIRWRPPRLPRPRPRPCMPPRP | -0.425 |
| RRIRWRPPRLPRPRPRPCPTPRP | 0.0714 |
| RRIRWRPPRLPRPRPRPCQLPRP | -0.0812 |
| RRIRWRPPRLPRPRPRPCQQPRP | -0.219 |
| RRIRWRPPRLPRPRPRPCQRPRP | 1.03 |
| RRIRWRPPRLPRPRPRPCQWPRP | 0.0226 |
| RRIRWRPPRLPRPRPRPCRFPRP | 0.0225 |
| RRIRWRPPRLPRPRPRPCSEPRP | -0.206 |
| RRIRWRPPRLPRPRPRPCVDPRP | 0.0275 |
| RRIRWRPPRLPRPRPRPCVGPRP | 0.352 |
| RRIRWRPPRLPRPRPRPCWGPRP | -0.122 |
| RRIRWRPPRLPRPRPRPCWLPRP | -0.119 |
| RRIRWRPPRLPRPRPRPCWPPRP | 0.427 |
| RRIRWRPPRLPRPRPRPCWYPRP | -0.277 |
| RRIRWRPPRLPRPRPRPDAPPRP | 0.558 |
| RRIRWRPPRLPRPRPRPDCCPRP | 0.777 |
